Results as given in publication PMC4407889, “Improved Catenated Structures of Bovine Peroxiredoxin III F190L Reveal Details of Ring-Ring Interactions and a Novel Conformational State” (PLoS ONE, 2015).

Target: the molecule itself
Assay: crystal structure; reduced form, crystallized in the presence of DTT; sitting-drop vapor diffusion, 16°C, 34% (v/v) 2-methyl-1,3-propanediol, 0.1 M phosphate-citrate pH 4.2; protein 15 mg/ml; space group P2(1)2(1)2; 2.2 Å

B1: bovine peroxiredoxin III F190L (enzyme, UniProt P35705 63-257, looked up)
chain: APAVTQHAPYFKGTAVVSGEFKEISLDDFKGKYLVLFFYPLDFTFVCPTEIIAFSDKASEFHDVNCEVVAVSVDSHFSHLAWINTPRKNGGLGHMNIALLSDLTKQISRDYGVLLEGPGLALRGLFIIDPNGVIKHLSVNDLPVGRSVEETLRLVKAFQFVEAHGEVCPANWTPESPTIKPHPTASREYLEKVNQ
notes: Mitochondrial 2-cys peroxiredoxin III (PrxIII), bovine, lacking its N-terminal 62 amino acid mitochondrial targeting signal; residue 1 is the N-terminal alanine of the mature protein; Construct in pET14b; Twelve chains form one (α2)6 dodecameric toroid, and two toroids interlock as a two-ring catenane in the crystal; In the oxidized form Cys47 of one monomer is disulfide-bonded to Cys168 of its …
- stoichiometry N: 12
